Experimental data as given in publication PMC11074293.

Key:
KLHL22^1–178 (human) = KLHL22^1–178 (human) (UniProt Q53GT1); test: SEC-MALS; WTC-015S5 column, low salt buffer; complexes at 2 mg/ml, KLHL22^1–178 and KLHL12^1–161 alone at 3 mg/ml
KLHL12^1–161 (human) = KLHL12^1–161 (human) (UniProt Q53G59); test: as above
Chain of KLHL12^1–161 (human) (Q53G59 1-161): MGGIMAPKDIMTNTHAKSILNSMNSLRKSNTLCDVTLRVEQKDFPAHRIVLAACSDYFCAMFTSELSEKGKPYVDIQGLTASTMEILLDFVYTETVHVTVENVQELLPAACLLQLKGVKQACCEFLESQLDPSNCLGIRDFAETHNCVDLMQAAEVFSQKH

Chain of KLHL22^1–178 (human) (Q53GT1 1-178): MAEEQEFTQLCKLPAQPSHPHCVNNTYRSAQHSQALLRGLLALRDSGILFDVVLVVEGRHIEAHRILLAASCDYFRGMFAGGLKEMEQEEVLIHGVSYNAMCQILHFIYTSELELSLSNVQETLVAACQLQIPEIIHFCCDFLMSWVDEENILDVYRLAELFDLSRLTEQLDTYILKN
Chain of CUL3^Δ1–24-RBX1 (Q13618 25-768, stated change not applied): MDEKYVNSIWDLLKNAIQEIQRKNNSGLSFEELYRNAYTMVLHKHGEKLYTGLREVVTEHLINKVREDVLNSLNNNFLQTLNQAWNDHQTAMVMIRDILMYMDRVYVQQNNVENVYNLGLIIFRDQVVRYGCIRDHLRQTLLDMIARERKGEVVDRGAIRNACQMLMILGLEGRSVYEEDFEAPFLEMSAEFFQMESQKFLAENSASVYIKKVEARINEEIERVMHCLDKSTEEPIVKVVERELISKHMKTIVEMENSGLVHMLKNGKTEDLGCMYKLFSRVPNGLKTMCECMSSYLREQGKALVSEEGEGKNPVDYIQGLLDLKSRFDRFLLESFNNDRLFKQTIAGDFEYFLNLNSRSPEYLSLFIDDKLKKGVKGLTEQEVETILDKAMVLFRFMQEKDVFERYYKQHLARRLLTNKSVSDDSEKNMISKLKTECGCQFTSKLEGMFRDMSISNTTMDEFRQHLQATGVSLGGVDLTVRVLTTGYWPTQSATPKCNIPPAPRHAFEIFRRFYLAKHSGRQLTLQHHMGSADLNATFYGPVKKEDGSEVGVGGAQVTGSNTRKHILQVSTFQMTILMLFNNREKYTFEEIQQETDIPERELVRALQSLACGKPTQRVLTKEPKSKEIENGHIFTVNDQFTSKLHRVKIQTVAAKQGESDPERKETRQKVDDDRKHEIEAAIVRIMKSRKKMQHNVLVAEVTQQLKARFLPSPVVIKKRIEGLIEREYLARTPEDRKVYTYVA
Chain of CUL3^Δ1–24-RBX1 (P62877 whole entry, stated change not applied): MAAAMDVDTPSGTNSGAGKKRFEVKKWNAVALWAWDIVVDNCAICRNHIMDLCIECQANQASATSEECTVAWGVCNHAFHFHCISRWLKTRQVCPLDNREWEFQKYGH
Chain of CUL3^WT-RBX1 (Q13618 whole entry): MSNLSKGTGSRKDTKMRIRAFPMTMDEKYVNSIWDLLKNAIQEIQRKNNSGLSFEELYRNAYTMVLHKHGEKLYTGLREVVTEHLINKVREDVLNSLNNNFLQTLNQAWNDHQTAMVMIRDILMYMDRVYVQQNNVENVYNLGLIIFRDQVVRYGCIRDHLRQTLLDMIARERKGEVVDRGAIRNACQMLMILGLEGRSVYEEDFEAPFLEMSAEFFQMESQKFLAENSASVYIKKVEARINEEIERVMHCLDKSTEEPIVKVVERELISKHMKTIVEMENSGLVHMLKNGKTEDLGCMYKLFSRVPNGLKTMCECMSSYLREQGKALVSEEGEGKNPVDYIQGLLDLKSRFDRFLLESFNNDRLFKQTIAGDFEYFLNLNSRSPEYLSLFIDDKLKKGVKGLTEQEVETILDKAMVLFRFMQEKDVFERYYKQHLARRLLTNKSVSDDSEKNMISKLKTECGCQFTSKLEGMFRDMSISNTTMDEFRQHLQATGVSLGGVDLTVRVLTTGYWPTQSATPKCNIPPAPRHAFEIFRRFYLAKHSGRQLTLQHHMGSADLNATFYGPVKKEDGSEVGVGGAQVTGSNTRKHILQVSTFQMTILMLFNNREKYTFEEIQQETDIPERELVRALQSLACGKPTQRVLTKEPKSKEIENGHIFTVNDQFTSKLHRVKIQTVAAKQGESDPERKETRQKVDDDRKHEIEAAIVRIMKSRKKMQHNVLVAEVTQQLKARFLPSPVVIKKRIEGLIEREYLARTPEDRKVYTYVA
Chain of CUL3^WT-RBX1 (P62877 whole entry): as the sequence (P62877 whole entry, stated change not applied) above

Row | stoichiometry N (CUL3-RBX1 per KLHL22^1–178 dimer) (KLHL22^1–178 (human)) | stoichiometry N (CUL3-RBX1 per KLHL12^1–161 dimer) (KLHL12^1–161 (human)) | Substance
1 | 2 | – | CUL3^WT-RBX1 (from UniProt Q13618 1-768; P62877 1-108) (complex)
2 | 1 | 1 | CUL3^Δ1–24-RBX1 (from UniProt Q13618 25-768; P62877 1-108) (complex)
